Measurements from PMC2834417.
Where “and” joins values, the source holds several entries; their conditions need not be identical. Identical values can stand only once.

Biological target: Wild type Cav1.2 channel with EGFP fused to its C-terminus (rabbit) (UniProt P15381)
Assay: FRET or BRET

UniProt P15381, sequence (P15381 whole entry, the tested form may be a part): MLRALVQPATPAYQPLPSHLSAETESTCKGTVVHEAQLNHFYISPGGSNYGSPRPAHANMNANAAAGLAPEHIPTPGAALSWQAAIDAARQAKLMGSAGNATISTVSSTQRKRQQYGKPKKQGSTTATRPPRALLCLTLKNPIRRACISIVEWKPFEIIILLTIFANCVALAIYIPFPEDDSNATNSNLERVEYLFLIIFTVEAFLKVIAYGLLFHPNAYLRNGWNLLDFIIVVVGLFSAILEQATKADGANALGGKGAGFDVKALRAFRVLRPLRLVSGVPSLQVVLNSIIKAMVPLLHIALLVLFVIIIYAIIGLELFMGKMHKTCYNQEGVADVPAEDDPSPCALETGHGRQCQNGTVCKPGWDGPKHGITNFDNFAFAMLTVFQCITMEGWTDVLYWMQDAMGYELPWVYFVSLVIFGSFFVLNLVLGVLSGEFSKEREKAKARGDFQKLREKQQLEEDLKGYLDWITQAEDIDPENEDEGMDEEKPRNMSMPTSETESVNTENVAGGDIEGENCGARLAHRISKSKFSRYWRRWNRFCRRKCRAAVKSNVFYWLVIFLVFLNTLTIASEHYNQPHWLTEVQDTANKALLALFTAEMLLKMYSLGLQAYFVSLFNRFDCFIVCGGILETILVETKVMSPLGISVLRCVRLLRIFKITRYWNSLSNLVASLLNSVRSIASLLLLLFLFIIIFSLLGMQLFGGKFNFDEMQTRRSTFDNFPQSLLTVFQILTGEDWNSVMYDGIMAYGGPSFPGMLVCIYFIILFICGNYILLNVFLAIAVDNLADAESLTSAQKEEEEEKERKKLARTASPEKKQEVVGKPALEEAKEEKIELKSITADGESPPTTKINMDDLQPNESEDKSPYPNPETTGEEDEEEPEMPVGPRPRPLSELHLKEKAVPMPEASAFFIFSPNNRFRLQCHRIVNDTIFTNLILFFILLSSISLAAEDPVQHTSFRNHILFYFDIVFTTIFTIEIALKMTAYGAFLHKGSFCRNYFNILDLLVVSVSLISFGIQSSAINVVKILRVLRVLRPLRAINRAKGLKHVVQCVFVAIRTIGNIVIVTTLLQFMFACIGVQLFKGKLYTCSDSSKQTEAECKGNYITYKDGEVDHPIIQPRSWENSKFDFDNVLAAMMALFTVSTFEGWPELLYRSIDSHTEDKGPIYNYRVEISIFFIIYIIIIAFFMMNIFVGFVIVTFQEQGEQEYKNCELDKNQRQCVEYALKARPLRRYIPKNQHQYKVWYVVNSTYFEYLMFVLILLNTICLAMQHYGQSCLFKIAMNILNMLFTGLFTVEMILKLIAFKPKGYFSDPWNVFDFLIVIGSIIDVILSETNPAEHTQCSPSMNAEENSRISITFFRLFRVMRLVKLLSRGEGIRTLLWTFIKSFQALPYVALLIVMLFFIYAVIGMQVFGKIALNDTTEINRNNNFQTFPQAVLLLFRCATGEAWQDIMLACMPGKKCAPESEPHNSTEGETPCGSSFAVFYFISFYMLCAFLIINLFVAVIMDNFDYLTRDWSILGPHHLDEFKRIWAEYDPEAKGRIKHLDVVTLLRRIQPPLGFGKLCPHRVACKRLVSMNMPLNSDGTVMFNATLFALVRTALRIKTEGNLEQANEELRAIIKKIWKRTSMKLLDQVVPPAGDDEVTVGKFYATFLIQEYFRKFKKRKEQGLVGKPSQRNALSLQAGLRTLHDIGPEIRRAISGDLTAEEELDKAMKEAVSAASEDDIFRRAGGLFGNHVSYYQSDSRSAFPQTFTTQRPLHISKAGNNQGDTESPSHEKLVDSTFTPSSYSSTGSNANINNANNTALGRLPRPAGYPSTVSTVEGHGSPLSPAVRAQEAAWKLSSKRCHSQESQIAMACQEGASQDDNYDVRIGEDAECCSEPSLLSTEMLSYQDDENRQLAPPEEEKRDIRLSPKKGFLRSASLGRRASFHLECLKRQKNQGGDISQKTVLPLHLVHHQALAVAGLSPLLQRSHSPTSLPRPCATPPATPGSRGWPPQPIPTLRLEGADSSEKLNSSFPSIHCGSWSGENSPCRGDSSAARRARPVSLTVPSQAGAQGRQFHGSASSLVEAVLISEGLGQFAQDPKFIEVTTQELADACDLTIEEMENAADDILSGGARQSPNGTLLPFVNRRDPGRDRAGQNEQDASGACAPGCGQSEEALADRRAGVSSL

Calmodulin fused with tag-RFP (from UniProt P0DP23 1-149) (natural protein)
FRET: 0.32 and 0.21 and 0.33
